Tests used:
[1] = target: BA.2 RBD with the S408R mutation (SARS-CoV-2); assay: SPR
[2] = target: SARS-CoV-2 Omicron BA.3 RBD protein with His-tag, spike residues 319-541 (SARS-CoV-2); assay: SPR

Sequence of Human ACE2 protein, residues 19-615 (produced by HEK293F cells, used for SPR) (Q9BYF1 19-615): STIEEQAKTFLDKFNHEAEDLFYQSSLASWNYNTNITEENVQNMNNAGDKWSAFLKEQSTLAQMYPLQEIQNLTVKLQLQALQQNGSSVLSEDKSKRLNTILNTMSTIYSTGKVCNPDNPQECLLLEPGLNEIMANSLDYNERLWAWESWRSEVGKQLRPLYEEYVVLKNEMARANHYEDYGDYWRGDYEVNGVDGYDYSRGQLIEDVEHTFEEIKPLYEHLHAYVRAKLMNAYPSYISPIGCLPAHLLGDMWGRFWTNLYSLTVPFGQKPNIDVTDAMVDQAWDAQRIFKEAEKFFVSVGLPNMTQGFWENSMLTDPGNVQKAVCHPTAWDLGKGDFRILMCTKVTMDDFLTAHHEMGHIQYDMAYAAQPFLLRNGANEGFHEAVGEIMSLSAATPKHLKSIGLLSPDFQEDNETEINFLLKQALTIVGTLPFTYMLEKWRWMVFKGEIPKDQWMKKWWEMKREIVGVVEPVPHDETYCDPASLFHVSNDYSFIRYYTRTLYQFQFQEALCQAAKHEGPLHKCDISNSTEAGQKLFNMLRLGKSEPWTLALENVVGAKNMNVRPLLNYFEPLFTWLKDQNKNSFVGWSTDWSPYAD

Question: How did the Kd [1] turn out when “Human ACE2 protein, residues 19-615 (produced by HEK293F cells, used for SPR) (from UniProt Q9BYF1-1 19-615) (receptor)” was run?
Answer: 16.4 nM

Question: What about the Kd [2] of the same substance?
Answer: 22.1 nM

From PMC9212699
